Data: patent KR20230087219A (dated 2023)

How the values were obtained:
[1] = target: T1, SARS-CoV nucleocapsid protein (Sino Biological Cat. No. 40143-V08B) (SARS-CoV, UniProt P59595 1-422); experiment: indirect LFIA, NP fixed on nitrocellulose, hybridoma culture medium
T1 construct: also called SARS-CoV NP

[2] = target: T2, MERS-CoV nucleocapsid protein (Sino Biological Cat. No. 40068V08B) (MERS-CoV, UniProt K9N4V7 1-411); experiment: as above
T2 construct: also called MERS-CoV NP; MERS NP

| Binder | binding result [1] | binding result [2] |
| --- | --- | --- |
| 79C12 (antibody, V domains shown, also called monoclonal antibody 79C12) VH: EVKLEESGGGLVQPGGSMKLSCVASGFTFSDYWMNWVRQSPEKGLEWVAEIRLKSNNYATHYAESVKGRFTISRDDSKSSVYLQMNNLRAEDTGIYYCTRAAMDYWGQGTSVTVSS VL: not shown | no binding | no binding |
| 54G6 (antibody, V domains shown, also called monoclonal antibody 54G6) VH: EVQGVESGGGLVQPGGSMKLSCAASGFTFSDYWMNWVRQSPEKGLEWVGEIRLKSNNYATHYAESVKGRFTISRDDSKSSIHLQMNNLRAEDTGIYYCTRYAMDYWGQGTTVTVSS VL: GIVMTQSPSSLAVSPGEKVTMSCKSSQSLLNSRTRKNHLAWYQQKPGQSPKLLIYWASTKDSGVPDRFTGSGSGTDFTLTISSVQAEDLAVYYCKQSYNLFTFGSGTKLEIK | no binding | no binding |
| 54G10 (antibody, V domains shown, also called monoclonal antibody 54G10) VH: EVTLKVCGPGILQPSQTLSLTCSFSGFSLSTSGMGVGWIRQPSGKGLEWLAHIWWDDVKRYNPALKSRLTISKDTSSSQVFLKIASVDTADTATYYCARYYRYDVRWGQGTLVTVSA VL: DIVMTQTPKFLLVSAGDRVTITCKASQSVSNDVAWYQQKPGQSPTLLIYSASNRYTGVPDRFTGSGYGTDFTFTISTVQAEDLAVYFCQQDYSSPLTFGAGTKLELK | no binding | no binding |
